{"source": "patent US20240034816A1", "about": "(Sanofi, published 2024)", "binders": {"B1": {"name": "NKp46-BCMA_Fc-ADE-DSB NKCE (bispecific antibody, human IgG1, kappa)", "light": "QTVVTQEPSLTVSPGGTVTLTCASSTGTVTPSNYANWVQQKPGQAFRGLIGDNNSRPPGTPARFSASLLGGKAALTLSGVQPEDEAEYYCALWFGNQWVFGGGTKLTVLGGGGSGGGGSDIQMTQSPSSLSASVGDRVTITCRASQDISNYLNWYQQKPGKAPKLLIYYTSRLHSGVPSRFSGSGSGTDFTFTISSLQPEDIATYFCQQGNTRPWTFGGGTKVEIKGGGGSGGGGSRTVAAPSVFIFPPSDEQLKSGTASVVCLLNNFYPREAKVQWKVDNALQSGNSQESVTEQDSKDSTYSLSSTLTLSKADYEKHKVYACEVTHQGLSSPVTKSFNRGEC", "heavy": "QVQLVQSGAEVKKPGSSVKVSCKASGYTFSDYVINWVRQAPGQGLEWMGEIYPGSGTNYYNEKFKAKATITADKSTSTAYMELSSLRSEDTAVYYCARRGRYGLYAMDYWGQGTTVTVSSQVQLVESGGGVVQPGRSLRLSCAASGFTFSNFGMHWVRQAPGRGLEWVAVIWSDETNRYYADSVKGRFTVSRDNVKSTVYLQMNSLISEDTAVYYCARDQQYCSSDSCFTWFDPWGQGTLVTVSSASTKGPSVFPLAPSSKSTSGGTAALGCLVKDYFPEPVTVSWNSGALTSGVHTFPAVLQSSGLYSLSSVVTVPSSSLGTQTYICNVNHKPSNTKVDKKVEPKSCDKTHTCPPCPAPELLAGPDVFLFPPKPKDTLMISRTPEVTCVVVDVSHEDPEVKFNWYVDGVEVHNAKTKPCEEQYNSTYRCVSVLTVLHQDWLNGKEYKCKVSNKALPAPEEKTISKAKGQPREPQVYTLPPCRDELTKNQVSLWCLVKGFYPSDIAVEWESNGQPENNYKTTPPVLDSDGSFFLYSKLTVDKSRWQQGNVFSCSVMHEALHNHYTQKSLSLSPG", "chain": "DKTHTCPPCPAPELLAGPDVFLFPPKPKDTLMISRTPEVTCVVVDVSHEDPEVKFNWYVDGVEVHNAKTKPCEEQYNSTYRCVSVLTVLHQDWLNGKEYKCKVSNKALPAPEEKTISKAKGQPREPQVCTLPPSRDELTKNQVSLSCAVKGFYPSDIAVEWESNGQPENNYKTTPPVLDSDGSFFLVSKLTVDKSRWQQGNVFSCSVMHEALHNRFTQKSLSLSPG"}}, "key": {"[1]": {"target": "T1, human CD64 (human FcγRI) (human, UniProt P12314 16-292, limits assumed)", "T1 construct": "also called HuFcyRI", "T1 sequence (P12314 16-292 limits assumed)": "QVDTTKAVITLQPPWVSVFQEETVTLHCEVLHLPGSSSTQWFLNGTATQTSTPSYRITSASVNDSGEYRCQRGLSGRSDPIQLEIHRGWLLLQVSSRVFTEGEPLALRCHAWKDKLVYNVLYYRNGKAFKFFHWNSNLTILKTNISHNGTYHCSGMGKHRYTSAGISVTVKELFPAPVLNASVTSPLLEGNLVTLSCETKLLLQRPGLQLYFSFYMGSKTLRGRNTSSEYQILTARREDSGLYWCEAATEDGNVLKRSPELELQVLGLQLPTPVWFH", "assay": "SPR, fit 1:1 Binding, Exp No 1"}, "[2]": {"target": "T2, cynomolgus CD16 (cynomolgus, UniProt Q8SPW2 17-208)", "T2 construct": "also called CyFcyRIII", "T2 sequence (Q8SPW2 17-208)": "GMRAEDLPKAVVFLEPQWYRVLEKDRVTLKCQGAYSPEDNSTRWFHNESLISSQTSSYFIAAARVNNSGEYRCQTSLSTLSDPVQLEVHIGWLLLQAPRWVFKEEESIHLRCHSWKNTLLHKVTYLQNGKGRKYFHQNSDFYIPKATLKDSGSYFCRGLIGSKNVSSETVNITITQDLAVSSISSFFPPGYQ", "assay": "SPR, fit Two State Reaction, Exp No 1"}, "[3]": {"target": "T3, human CD16a (human FcγRIIIA), V isoform (human, UniProt P08637 17-208)", "T3 construct": "also called HuFcyRIIIaV; CD16a (V176)", "T3 sequence (P08637 17-208 F176V limits assumed)": "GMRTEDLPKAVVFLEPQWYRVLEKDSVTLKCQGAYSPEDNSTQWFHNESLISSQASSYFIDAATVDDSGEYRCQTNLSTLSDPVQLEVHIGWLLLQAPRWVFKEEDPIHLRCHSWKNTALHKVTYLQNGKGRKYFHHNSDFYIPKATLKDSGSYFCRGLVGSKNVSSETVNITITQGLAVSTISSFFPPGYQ", "assay": "SPR, fit Two State Reaction, Exp No 1"}, "[4]": {"target": "T4, cynomolgus CD32b (cynomolgus)", "T4 construct": "also called CyFcyRIIb", "assay": "SPR, fit Steady State Affinity, Exp No 3"}, "[5]": {"target": "T5, human CD32b (human FcγRIIB) (human, UniProt P31994 43-217, limits assumed)", "T5 construct": "also called HuFcyRIIb", "T5 sequence (looked up)": "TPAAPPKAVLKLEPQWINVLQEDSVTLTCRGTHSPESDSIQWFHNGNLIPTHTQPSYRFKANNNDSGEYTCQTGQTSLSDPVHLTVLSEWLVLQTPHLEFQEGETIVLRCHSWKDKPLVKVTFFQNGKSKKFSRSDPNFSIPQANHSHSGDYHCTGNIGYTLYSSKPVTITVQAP", "assay": "SPR, fit Steady State Affinity, Exp No 3"}, "[6]": {"target": "T6, human CD16b (human FcgRIIIB) (human, UniProt O75015 17-200, limits assumed)", "T6 construct": "also called HuFcyRIIIb", "T6 sequence (O75015 17-200 limits assumed)": "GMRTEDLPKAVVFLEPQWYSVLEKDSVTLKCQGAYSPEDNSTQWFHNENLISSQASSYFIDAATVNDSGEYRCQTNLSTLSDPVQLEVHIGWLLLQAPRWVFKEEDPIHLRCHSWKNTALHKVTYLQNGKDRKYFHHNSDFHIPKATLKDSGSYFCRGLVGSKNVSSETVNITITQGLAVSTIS", "assay": "SPR, fit Steady State Affinity, Exp No 3"}, "[7]": {"target": "T1, human CD64 (human FcγRI)", "assay": "SPR, fit 1:1 Binding, mean of 3 experiments"}, "[8]": {"target": "T7, recombinant human NKp46 extracellular domain (Gln22-Asn255) with C-terminal 6xHis tag (human, UniProt O76036 22-255)", "T7 construct": "range 22-255; also called huNKp46", "T7 sequence (O76036 other isoform, or with tags, fused parts or gaps limits assumed)": "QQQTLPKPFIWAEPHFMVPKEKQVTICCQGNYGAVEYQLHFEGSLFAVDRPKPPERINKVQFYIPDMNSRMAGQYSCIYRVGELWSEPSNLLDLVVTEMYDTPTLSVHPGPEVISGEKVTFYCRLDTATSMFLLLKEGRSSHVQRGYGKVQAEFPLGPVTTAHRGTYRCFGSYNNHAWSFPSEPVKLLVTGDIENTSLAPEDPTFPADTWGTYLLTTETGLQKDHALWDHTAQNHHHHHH", "assay": "SPR (Biacore 8K), NKCE captured by anti-human Fc, antigen as analyte, 1:1 model; Experiment No 1", "procedure": "(§1) Measurements were performed in multicycle kinetics experiments for each antibody using a Biacore 8K instrument. In each multicycle experiment the antibodies were captured via an anti-hum a Fc antibody immobilized on a series S CM5 sensor chip (human antibody capture kit, Cytiva, Uppsala, Catalog No. BR1008-39).\n(§2) The antigens, diluted as described above (concentration range 0.1 nM to 50 nM), were injected at a flow rate of 60 μL/min for 240 sec followed by a dissociation phase of 400 sec. All analyte concentrations were run in duplicate together with multiple buffer blanks for double referencing. Regeneration of the capture surface was performed with regeneration solution (3 mol/L MgCl2) for 60 sec at 30 μL/min. Binding kinetics data were evaluated with the Biacore 8K Evaluation Software version 1.1.1.7442 using a 1:1 binding model with mass transport limitation."}, "[9]": {"target": "T8, recombinant cynomolgus NKp46 extracellular domain with C-terminal Flag-M2 tag (cynomolgus, UniProt Q95JB9 22-254)", "T8 construct": "range 22-254; also called cyno NKp46; not shown: C-terminal Flag-M2 tag", "T8 sequence (Q95JB9 22-254)": "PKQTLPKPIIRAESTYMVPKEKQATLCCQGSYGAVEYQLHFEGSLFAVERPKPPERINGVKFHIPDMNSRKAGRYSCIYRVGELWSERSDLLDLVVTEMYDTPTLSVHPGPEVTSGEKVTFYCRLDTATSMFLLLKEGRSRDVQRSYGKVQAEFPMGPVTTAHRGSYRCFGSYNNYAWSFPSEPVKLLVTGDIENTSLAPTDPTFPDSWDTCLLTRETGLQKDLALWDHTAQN", "assay": "SPR (Biacore 8K), NKCE captured by anti-human Fc, antigen as analyte, 1:1 model; Experiment No 1", "procedure": "as §1, §2"}, "[10]": {"target": "T9, recombinant human BCMA (human, UniProt Q02223 1-54)", "assay": "SPR (Biacore 8K), NKCE captured by anti-human Fc, antigen as analyte, 1:1 model; Experiment No 1", "procedure": "as §1, §2"}, "[11]": {"target": "T10, cyno BCMA (PPB-17990) (cynomolgus, UniProt A0A2K5UD97 1-53)", "T10 construct": "also called cynomolgus BCMA", "T10 sequence (A0A2K5UD97 entry or part of it)": "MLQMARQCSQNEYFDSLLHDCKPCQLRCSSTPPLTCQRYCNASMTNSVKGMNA", "assay": "SPR (Biacore 8K), NKCE captured by anti-human Fc, antigen as analyte, 1:1 model; Experiment No 1", "procedure": "as §1, §2"}, "[12]": {"target": "T7, recombinant human NKp46 extracellular …", "assay": "SPR (Biacore 8K), NKCE captured by anti-human Fc, antigen as analyte, 1:1 model; mean of 3 experiments", "procedure": "as §1, §2"}, "[13]": {"target": "T8, recombinant cynomolgus NKp46 …", "assay": "SPR (Biacore 8K), NKCE captured by anti-human Fc, antigen as analyte, 1:1 model; mean of 3 experiments", "procedure": "as §1, §2"}, "[14]": {"target": "T9, recombinant human BCMA", "assay": "SPR (Biacore 8K), NKCE captured by anti-human Fc, antigen as analyte, 1:1 model; mean of 3 experiments", "procedure": "as §1, §2"}, "[15]": {"target": "T10, cyno BCMA (PPB-17990)", "assay": "SPR (Biacore 8K), NKCE captured by anti-human Fc, antigen as analyte, 1:1 model; mean of 3 experiments", "procedure": "as §1, §2"}, "[16]": {"target": "T11, human BCMA on RPMI 8226 multiple myeloma cells (human, UniProt Q02223 1-184)", "T11 construct": "whole, on cells; also called BCMA on RPMI cells", "T11 sequence (looked up)": "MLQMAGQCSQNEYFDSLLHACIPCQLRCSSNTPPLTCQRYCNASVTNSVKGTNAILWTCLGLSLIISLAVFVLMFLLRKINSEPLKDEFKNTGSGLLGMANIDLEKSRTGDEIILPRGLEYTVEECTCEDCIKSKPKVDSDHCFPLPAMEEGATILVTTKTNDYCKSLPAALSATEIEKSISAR", "assay": "flow cytometry titration on RPMI 8226 cells, detection with goat anti-human IgG Fcγ-PE; representative titration", "procedure": "(§3) After staining, cells were resuspended in BD Cellfix and analyzed by flow cytometry. Parameters were recorded and analysed with FlowJo software. Staining EC50 values were calculated with GraphPad prism using 4 parameter logistics non-linear regression model."}, "[17]": {"target": "T12, human NKp46 on NK cells purified from PBMC of healthy donors (human, UniProt O76036 22-304)", "T12 construct": "whole, on cells; also called NKp46 on donor NK cells", "T12 sequence (O76036 22-304)": "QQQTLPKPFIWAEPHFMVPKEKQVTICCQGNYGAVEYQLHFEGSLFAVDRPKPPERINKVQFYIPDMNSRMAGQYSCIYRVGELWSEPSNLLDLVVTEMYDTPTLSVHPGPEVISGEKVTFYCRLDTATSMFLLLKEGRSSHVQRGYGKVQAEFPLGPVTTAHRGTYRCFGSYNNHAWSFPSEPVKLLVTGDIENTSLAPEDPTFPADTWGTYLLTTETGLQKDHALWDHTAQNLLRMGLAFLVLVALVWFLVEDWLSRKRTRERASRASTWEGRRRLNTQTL", "assay": "flow cytometry titration on resting human NK cells from healthy donors, detection with goat anti-human IgG Fcγ-PE, 4-parameter fit; mean of 3 NK donors; NK cells also carry CD16a", "procedure": "as §3"}}}
{"binder": "B1", "values": [{"measurement": "Kd", "setting": "[1]", "value": 0.32, "unit": "nM"}, {"measurement": "Kd", "setting": "[2]", "value": 10, "unit": "nM"}, {"measurement": "Kd", "setting": "[3]", "value": 11.7, "unit": "nM"}, {"measurement": "Kd", "setting": "[4]", "value": 1300, "unit": "nM"}, {"measurement": "Kd", "setting": "[5]", "value": 1420, "unit": "nM"}, {"measurement": "Kd", "setting": "[6]", "value": 2330, "unit": "nM"}, {"measurement": "Kd", "setting": "[7]", "value": 0.32, "unit": "nM"}, {"measurement": "Kd", "setting": "[8]", "value": 11.8, "unit": "nM"}, {"measurement": "koff", "setting": "[8]", "value": 0.0019, "unit": "s⁻¹"}, {"measurement": "kon", "setting": "[8]", "value": 160000, "unit": "M⁻¹ s⁻¹"}, {"measurement": "Kd", "setting": "[9]", "value": 16.6, "unit": "nM"}, {"measurement": "koff", "setting": "[9]", "value": 0.003, "unit": "s⁻¹"}, {"measurement": "kon", "setting": "[9]", "value": 210000, "unit": "M⁻¹ s⁻¹"}, {"measurement": "Kd", "setting": "[10]", "value": 0.2, "unit": "nM"}, {"measurement": "koff", "setting": "[10]", "value": "6.1e-05", "unit": "s⁻¹"}, {"measurement": "kon", "setting": "[10]", "value": 280000, "unit": "M⁻¹ s⁻¹"}, {"measurement": "Kd", "setting": "[11]", "value": 0.4, "unit": "nM"}, {"measurement": "koff", "setting": "[11]", "value": "7.2e-05", "unit": "s⁻¹"}, {"measurement": "kon", "setting": "[11]", "value": 170000, "unit": "M⁻¹ s⁻¹"}, {"measurement": "Kd", "setting": "[12]", "value": 12.5, "unit": "nM"}, {"measurement": "Kd", "setting": "[13]", "value": 16.9, "unit": "nM"}, {"measurement": "Kd", "setting": "[14]", "value": 0.2, "unit": "nM"}, {"measurement": "Kd", "setting": "[15]", "value": 0.3, "unit": "nM"}, {"measurement": "EC50 (read off the curve)", "setting": "[16]", "value": "~1", "unit": "µg/mL"}, {"measurement": "EC50", "setting": "[17]", "value": 0.643, "unit": "µg/mL"}]}
